This is an account of results in patent US11554097B2, “Recombinant production of hybrid lipid-biopolymer materials that self-assemble and encapsulate agents” (Duke University, priority 2017, dated 2023).

Marks after values point to notes of the source that are not given here.

What all share (type): physicochemical
Series [1] in a line: UV-Vis turbidity, temperature-triggered LCST phase transition. How it is done: We investigated the temperature-triggered phase-transition of each construct by recording the optical density of the protein solution at 350 nm as the temperature is ramped up and down on a temperature-controlled UV-Vis spectrophotometer (Cary 300 Bio, Varian Instruments, Palo Alto, Calif.) (FIG. 10-FIG. 12). The transition temperature (T) is defined as the inflection point of the turbidity profile and was calculated as the maximum of the first derivative of OD350 versus temperature, which was determined using Igor Pro software (FIG. 10). Turbidity profiles for each sample were measured in PBS at concentrations between 12.5 and 250 μM. For the non-myristoylated control sample, ELP90A,40, the transition temperatures at these concentrations were well above 80° C. Consequently, their […] values were monitored in 1 M NaCl, which served to reduce the T into a temperature range that is experimentally accessible.
We next used UV-vis spectrophotometry to evaluate whether the lipid-ELP hybrid retained the LCST phase behavior of its parent ELP. The absorbance at 350 nm was monitored as the solution temperature was ramped up and then down at a rate of 1° C./min. […] The transition temperature (Tt) is defined as the inflection point of absorbance versus temperature, calculated as the maximum of the curve's first derivative (FIG. 2D, arrow).

A short description of series [2]: Dynamic and static light scattering of self-assembled M-ELPs. To be noted: for Hydrodynamic Radius, Day 0, Rh: Day 0, freshly filtered; for Hydrodynamic Radius, Day 0, Rh / Second Virial Coefficient A2 / Shape Factor, ρ, Rg/Rh: PBS; for Second Virial Coefficient A2 / Shape Factor, ρ, Rg/Rh: full Zimm plots; for Aggregation Number, Nagg, MWparticle/Munimer: partial Zimm plots, Day 0; for hydrodynamic radius (Rh) by DLS: filtered samples in PBS at 25° C. On the procedure: Characterization of myristoylated and non-myristoylated ELPs: Dynamic light scattering (DLS) studies were carried out to investigate the self-assembly of various myristoylated ELPs in aqueous solution. Prior to analysis, samples were prepared in PBS at a concentration of 50 μM, and filtered through a 0.22 μm polyvinylidene fluoride membrane (Durapore) directly into a quartz DLS cell. DLS experiments were conducted in a temperature-controlled DynaPro Microsampler (Wyatt Technologies). Measurements were obtained over a temperature range of 15 to 20° C. using 1° C. steps and at 25° C. 18 acquisitions of 5 s each were collected for every temperature point. Autocorrelation intensities at 15° C. were fitted using the regularization model and then depicted as a population size distribution histogram (FIG. 13) and intensity size distribution (FIG. 14) using Wyatt Dynamics software.
Static light scattering (SLS) studies were carried out to quantify the Rg, Rh, and Nagg of myristoylated ELPs in aqueous solution. Samples were prepared in PBS at concentration ranging from 0.5-5 mg/mL and filtered through a 0.22 μm polyvinylidene fluoride membrane (Durapore) directly into a 10 mm, disposable borosilicate glass tube (Fisher Scientific). Experiments were performed using an ALV/CGS-3 goniometer system (Germany). For M-ELP90A,120 and M-ELP90A,80, as well as for M-ELP90A,40 and M-ELP100V,40 at early time points, measurements were obtained at 25° C. for angles between 30 and 150° C. and made at 5° C. increments with 3 runs of 10 s. Smaller angles (20-45° C.) were used to measure the 40-mer ELPs at later time points, after they had matured to their larger rod-like shape. Full Zimm plots were created by conducting SLS for each construct at different concentrations ranging from 25 μM to 100 μM. These Zimm plots were created using SLS data and ALVStat software after the refractive index increment (dn/dc) was calculated (FIG. 15). These plots provided the second virial coefficient and Rg and from which shape factor was calculated (TABLE 1). Partial Zimm plots were used to calculate Nagg at 1 mg/mL.

Series [3] in a line: DLS kinetics study of self-assembly. Conditions: 50 μM in PBS, room temperature, after filtering. How it is done: Thus, we wanted to take more frequent light scattering measurements to track their changing size. Larger particles scatter more light, thus, we tracked intensity via DLS to monitor the size of the 40-mer M-ELPs' self-assembly.
The 40-mer M-ELPs were prepared at 50 μM in PBS and filtered directly into the instrument's quartz cell. The instrument was pre-set to room temperature and, immediately after filtering, the sample was measured periodically over 24 h for both constructs and out to 1 week for M-ELP90A,40. While M-ELP90A,40 takes 144-168 h to reach equilibrium (FIG. 17A), M-ELP100V,40 appears to do so more quickly, by 24 h after filtering (FIG. 17B).

Series [4] is described as follows: Cryo-TEM imaging of self-assembled structures. To be noted: PBS, filtered. How it is done: Cryo-transmission electron microscopy (TEM) experiments were performed at Duke University's Shared Materials Instrumentation Facility and at Thermo Fisher Scientific (Formerly FEI). Lacey holey carbon grids (Ted Pella, Redding, Calif.) were glow discharged in a PELCO EasiGlow Cleaning System (Ted Pella, Redding, Calif.). After filtering the samples, a 3 μL drop (1 mg/mL of each construct) at 25° C. (below the Tt for M-ELP constructs) was deposited onto the grid, blotted for 3 s with an offset of −3 mm, and vitrified in liquid ethane using the Vitrobot Mark III (FEI, Eindhoven, Netherlands). The sample chamber was maintained at 100% relative humidity to prevent sample evaporation. Grids were transferred to a Gatan 626 cryoholder (Gatan, Pleasanton, Calif.) and imaged with an FEI Tecnai G^2 Twin TEM (FEI, Eindhoven, Netherlands), which was operated at 80 keV.

B1: ELP90A,40: non-myristoylated control sample, 40 repeats (SEQ ID NO: 36) (protein)
chain: MGLYASKLFSNLGAGVPGAGVPGVGVPGAGVPGAGVPGAGVPGAGVPGAGVPGAGVPGAGVPGAGVPGAGVPGVGVPGAGVPGAGVPGAGVPGAGVPGAGVPGAGVPGAGVPGAGVPGAGVPGVGVPGAGVPGAGVPGAGVPGAGVPGAGVPGAGVPGAGVPGAGVPGAGVPGVGVPGAGVPGAGVPGAGVPGAGVPGAGVPGAGVPGAGVPG
For the molecule B1, the “transition temperature (Tt)” value in series [1] (PBS, 12.5 to 250 μM) was “above 80 °C”.

B2: M-ELP90A,40: myristoylated ELP, 90% alanine, 10% valine, 40 pentapeptide repeats (SEQ ID NO: 36) (conjugate)
chain: MGLYASKLFSNLGAGVPGAGVPGVGVPGAGVPGAGVPGAGVPGAGVPGAGVPGAGVPGAGVPGAGVPGAGVPGVGVPGAGVPGAGVPGAGVPGAGVPGAGVPGAGVPGAGVPGAGVPGAGVPGVGVPGAGVPGAGVPGAGVPGAGVPGAGVPGAGVPGAGVPGAGVPGAGVPGVGVPGAGVPGAGVPGAGVPGAGVPGAGVPGAGVPGAGVPG
modifications: N-terminal myristoylation
With B2, in series [2], the “Refractive Index Increment dn/dc” value turned out to be 0.1669 cm^3 g^−1; the “Hydrodynamic Radius, Day 0, Rh” value is 81.9 nm; the “Second Virial Coefficient A2” value was −2.30 × 10^−8 mol dm^3 g^−2; the “Shape Factor, ρ, Rg/Rh” value worked out at 1.29. Besides, the “Aggregation Number, Nagg, MWparticle/Munimer” value in series [2] was 137^b. Further, the “time to reach equilibrium of self-assembly” value in series [3] is 144 to 168 h.

B3: M-ELP90A,80: myristoylated ELP, same composition (90% alanine, 10% valine), 80 pentapeptide repeats (SEQ ID NO: 35) (conjugate)
chain: MGLYASKLFSNLGAGVPGAGVPGVGVPGAGVPGAGVPGAGVPGAGVPGAGVPGAGVPGAGVPGAGVPGAGVPGVGVPGAGVPGAGVPGAGVPGAGVPGAGVPGAGVPGAGVPGAGVPGAGVPGVGVPGAGVPGAGVPGAGVPGAGVPGAGVPGAGVPGAGVPGAGVPGAGVPGVGVPGAGVPGAGVPGAGVPGAGVPGAGVPGAGVPGAGVPGAGVPGAGVPGVGVPGAGVPGAGVPGAGVPGAGVPGAGVPGAGVPGAGVPGAGVPGAGVPGVGVPGAGVPGAGVPGAGVPGAGVPGAGVPGAGVPGAGVPGAGVPGAGVPGVGVPGAGVPGAGVPGAGVPGAGVPGAGVPGAGVPGAGVPGAGVPGAGVPGVGVPGAGVPGAGVPGAGVPGAGVPGAGVPGAGVPGAGVPG
modifications: N-terminal myristoylation
B3: in series [2], the “Refractive Index Increment dn/dc” value came out at 0.1660 cm^3 g^−1; the “Hydrodynamic Radius, Day 0, Rh” value is on record as 31.2 nm; the “Second Virial Coefficient A2” value is −5.58 × 10^−9 mol dm^3 g^−2; the “Shape Factor, ρ, Rg/Rh” value is 1.00. In series [2], the “Aggregation Number, Nagg, MWparticle/Munimer” value was found to be 48. The “morphology of self-assembled structure” value in series [4] is “spherical micelles”.

B4: M-ELP90A,120: myristoylated ELP: Arf2 recognition sequence fused to 120 repeats of VPGXG, X 90% alanine and 10% valine (SEQ ID NO: 34) (conjugate)
chain: MGLYASKLFSNLGAGVPGAGVPGVGVPGAGVPGAGVPGAGVPGAGVPGAGVPGAGVPGAGVPGAGVPGAGVPGVGVPGAGVPGAGVPGAGVPGAGVPGAGVPGAGVPGAGVPGAGVPGAGVPGVGVPGAGVPGAGVPGAGVPGAGVPGAGVPGAGVPGAGVPGAGVPGAGVPGVGVPGAGVPGAGVPGAGVPGAGVPGAGVPGAGVPGAGVPGAGVPGAGVPGVGVPGAGVPGAGVPGAGVPGAGVPGAGVPGAGVPGAGVPGAGVPGAGVPGVGVPGAGVPGAGVPGAGVPGAGVPGAGVPGAGVPGAGVPGAGVPGAGVPGVGVPGAGVPGAGVPGAGVPGAGVPGAGVPGAGVPGAGVPGAGVPGAGVPGVGVPGAGVPGAGVPGAGVPGAGVPGAGVPGAGVPGAGVPGAGVPGAGVPGVGVPGAGVPGAGVPGAGVPGAGVPGAGVPGAGVPGAGVPGAGVPGAGVPGVGVPGAGVPGAGVPGAGVPGAGVPGAGVPGAGVPGAGVPGAGVPGAGVPGVGVPGAGVPGAGVPGAGVPGAGVPGAGVPGAGVPGAGVPGAGVPGAGVPGVGVPGAGVPGAGVPGAGVPGAGVPGAGVPGAGVPGAGVPGY
modifications: N-terminal myristoylation
Regarding B4, in series [2], the “Refractive Index Increment dn/dc” value was determined as 0.1515 cm^3 g^−1; the “Hydrodynamic Radius, Day 0, Rh” value was 22.7 nm; the “hydrodynamic radius (Rh) by DLS” value is recorded as approximately 22 nm; the “Second Virial Coefficient A2” value was −9.23 × 10^−9 mol dm^3 g^−2. Further, in series [2], the “Shape Factor, ρ, Rg/Rh” value was found to be 0.98 and the “Aggregation Number, Nagg, MWparticle/Munimer” value came to 29. In addition, the “suppression of Tt by myristoylation” value in series [1] (versus unmyristoylated ELP) was approximately 20 °C. For the same molecule, in series [4], the “morphology of self-assembled structure” value is “spherical micelles”.

B5: ELP90A,120: non-myristoylated control, recognition sequence-ELP grown without NMT (SEQ ID NO: 34) (protein)
chain: MGLYASKLFSNLGAGVPGAGVPGVGVPGAGVPGAGVPGAGVPGAGVPGAGVPGAGVPGAGVPGAGVPGAGVPGVGVPGAGVPGAGVPGAGVPGAGVPGAGVPGAGVPGAGVPGAGVPGAGVPGVGVPGAGVPGAGVPGAGVPGAGVPGAGVPGAGVPGAGVPGAGVPGAGVPGVGVPGAGVPGAGVPGAGVPGAGVPGAGVPGAGVPGAGVPGAGVPGAGVPGVGVPGAGVPGAGVPGAGVPGAGVPGAGVPGAGVPGAGVPGAGVPGAGVPGVGVPGAGVPGAGVPGAGVPGAGVPGAGVPGAGVPGAGVPGAGVPGAGVPGVGVPGAGVPGAGVPGAGVPGAGVPGAGVPGAGVPGAGVPGAGVPGAGVPGVGVPGAGVPGAGVPGAGVPGAGVPGAGVPGAGVPGAGVPGAGVPGAGVPGVGVPGAGVPGAGVPGAGVPGAGVPGAGVPGAGVPGAGVPGAGVPGAGVPGVGVPGAGVPGAGVPGAGVPGAGVPGAGVPGAGVPGAGVPGAGVPGAGVPGVGVPGAGVPGAGVPGAGVPGAGVPGAGVPGAGVPGAGVPGAGVPGAGVPGVGVPGAGVPGAGVPGAGVPGAGVPGAGVPGAGVPGAGVPGY
For B5, the “hydrodynamic radius (Rh) by DLS” value in series [2] stood at 6.2 nm.

B6: M-ELP100V,40: myristoylated ELP with 40 repeats of VPGXG where X is 100% valine (SEQ ID NO: 37) (conjugate)
chain: MGLYASKLFSNLGVGVPGVGVPGVGVPGVGVPGVGVPGVGVPGVGVPGVGVPGVGVPGVGVPGVGVPGVGVPGVGVPGVGVPGVGVPGVGVPGVGVPGVGVPGVGVPGVGVPGVGVPGVGVPGVGVPGVGVPGVGVPGVGVPGVGVPGVGVPGVGVPGVGVPGVGVPGVGVPGVGVPGVGVPGVGVPGVGVPGVGVPGVGVPGVGVPGVGVPG
modifications: N-terminal myristoylation
Turning to B6, in series [2], the “Refractive Index Increment dn/dc” value came to 0.1258 cm^3 g^−1; the “Hydrodynamic Radius, Day 0, Rh” value is on record as 80.3 nm; the “Shape Factor, ρ, Rg/Rh” value is on record as 1.30; the “Aggregation Number, Nagg, MWparticle/Munimer” value is listed as 201^b. Further, the “time to reach equilibrium of self-assembly” value in series [3] is recorded as not above 24 h. Moreover, in series [4], the “morphology of self-assembled structure” value was “rod-like micelles”.
